Experimental data taken from patent US20140093496A1 (Chugai, published 2014).
Positions count from the first letter of the chain named. Names may count otherwise. Values belong to the binder of their own block, whether it stands above or below them.

Assays:
[1] = molecular target: T1, FcγRIa extracellular domain with C-terminal His tag (human, UniProt P12314 16-292); assay: SPR (Biacore)
T1 construct: also called FcgRIa
Description: (§1) IL6R-L was utilized as the common antibody L chain for all of the antibodies, the antibodies were expressed and purified according to the method of Reference Example 1, and binding to each of the FcγRs (FcγRIa, FcγRIIa H type, FcγRIIa R type, FcγRIIb, and FcγRIIIa V type) was comprehensively evaluated by the method of Reference Example 2.
(§2) Furthermore, KD(IIaR)/KD(IIb) and KD(IIaH)/KD(IIb) in the table respectively represent the value obtained by dividing the KD value of each variant for FcγRIIaR by the KD value of each variant for FcγRIIb, and the value obtained by dividing the KD value of each variant for FcγRIIaH by the KD value of each variant for FcγRIIb. KD(IIb) of the parent polypeptide/KD(IIb) of the altered polypeptide refers to the value obtained by dividing the KD value of the parent polypeptide for FcγRIIb by the KD value of each variant for FcγRIIb.

[2] = molecular target: T2, FcγRIIb extracellular domain with C-terminal His tag (human, UniProt P31994 43-217); assay: SPR (Biacore)
T2 construct: extracellular domain; also called FcgRIIb
T2 sequence (looked up): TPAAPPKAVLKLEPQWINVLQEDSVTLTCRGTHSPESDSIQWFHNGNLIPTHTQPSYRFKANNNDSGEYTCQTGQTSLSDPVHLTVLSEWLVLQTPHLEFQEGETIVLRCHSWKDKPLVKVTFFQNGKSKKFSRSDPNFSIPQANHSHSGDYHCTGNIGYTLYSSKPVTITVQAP
Description: as §1, §2

[3] = molecular target: T3, FcγRIIIa type V extracellular domain, C-terminal His tag (human, UniProt P08637 17-208); assay: SPR (Biacore), antibody captured on chip, FcγR extracellular domain as analyte; 1:1 kinetic fit or Equation 2 for weak binding
T3 construct: extracellular domain; also called FcgRIIIaV; FcγRIIIaV; not shown: His tag at the C terminus
Description: as §1, §2

[4] = molecular target: T4, FcγRIIa type R extracellular domain with C-terminal His tag (human, UniProt P12318 34-217); assay: SPR (Biacore)
T4 construct: extracellular domain; also called FcgRIIaR; FcγRIIaR
T4 sequence (looked up): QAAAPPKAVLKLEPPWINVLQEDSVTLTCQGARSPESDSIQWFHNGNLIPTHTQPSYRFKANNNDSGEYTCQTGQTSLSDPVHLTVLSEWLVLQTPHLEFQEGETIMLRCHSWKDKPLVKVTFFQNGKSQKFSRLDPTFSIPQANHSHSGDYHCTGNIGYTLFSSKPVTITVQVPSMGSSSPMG
Description: as §1, §2

[5] = molecular target: T5, FcγRIIa type R extracellular domain, C-terminal His tag (human, UniProt P12318 34-217); assay: SPR (Biacore), antibody captured, FcγR as analyte
T5 construct: extracellular domain; also called FcgRIIaR; FcγRIIaR; not shown: His tag at the C terminus
T5 sequence (looked up): T4 sequence (looked up)
Description: as §2
Kinetic analyses for calculating the KD values of each altered antibody for FcγR were performed according to the following method. First, antibodies of interest were captured onto the above-mentioned sensor chips, and an Fcγ receptor diluted with the running buffer was allowed to interact. The Biacore Evaluation Software was used to globally fit the measured results to the obtained sensorgram using the 1:1 Langmuir binding model, and the association rate constant ka (L/mol/s) and the dissociation rate constant kd (1/s) were calculated; and from those values the dissociation constants KD (mol/L) were calculated.

T3 sequence (P08637 17-208 F176V): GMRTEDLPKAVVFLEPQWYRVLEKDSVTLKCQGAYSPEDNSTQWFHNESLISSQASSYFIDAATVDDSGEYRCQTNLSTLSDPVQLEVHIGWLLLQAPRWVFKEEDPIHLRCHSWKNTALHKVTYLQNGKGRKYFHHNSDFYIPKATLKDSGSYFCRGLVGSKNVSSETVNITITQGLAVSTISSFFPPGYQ
T1 sequence (P12314 16-292): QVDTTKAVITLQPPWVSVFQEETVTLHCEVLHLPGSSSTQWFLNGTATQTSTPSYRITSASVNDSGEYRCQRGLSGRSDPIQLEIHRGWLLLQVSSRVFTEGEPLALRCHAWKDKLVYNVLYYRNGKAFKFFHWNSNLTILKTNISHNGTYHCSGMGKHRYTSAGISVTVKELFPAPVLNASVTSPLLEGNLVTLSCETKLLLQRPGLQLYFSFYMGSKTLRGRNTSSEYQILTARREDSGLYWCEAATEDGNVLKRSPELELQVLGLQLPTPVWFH

B1: IL6R-2B261/IL6R-L (antibody, human IgG1, kappa)
heavy: QVQLQESGPGLVKPSETLSLTCAVSGHSISHDHAWSWVRQPPGEGLEWIGFISYSGITNYNPSLQGRVTISRDNSKNTLYLQMNSLRAEDTAVYYCARSLARTTAMDYWGEGTLVTVSSASTKGPSVFPLAPSSKSTSGGTAALGCLVKDYFPEPVTVSWNSGALTSGVHTFPAVLQSSGLYSLSSVVTVPSSSLGTQTYICNVNHKPSNTKVDKKVEPKSCDKTHTCPPCPAPDLLGGDSVFLFPPKPKDTLMISRTPEVTCVVVDVSHEDPEVKFNWYVDGVEVHNAKTKPREEQDNSTYRVVSVLTVLHQDWLNGKEYKCKVSNKALPAPIEKTISKAKGQPREPQVYTLPPSRDELTKNQVSLTCLVKGFYPSDIAVEWESNGQPENNYKTTPPVLDSDGSFFLYSKLTVDKSRWQQGNVFSCSVMHEALHNHYTQESLSLSP
light: not shown
notes: E233D/P238D/Y296D (EU) in IL6R-B3; copies: 2 + 2
Kd [1]: 0.009 µM | Kd [2]: 1 µM

B2: IL6R-BP213/IL6R-L (antibody, human IgG1, kappa)
heavy: B1 heavy with H270D, P273G, D298Y, A332R
light: not shown
notes: Anti-human IL-6 receptor IgG1
Kd [3]: 63 µM

B3: IL6R-BP195/IL6R-L (antibody, human IgG1, kappa)
heavy: B1 heavy with L236Y, G239D, H270D, P273G, K328A, A332K
light: not shown
notes: Anti-human IL-6 receptor IgG1
Kd [3]: 31 µM

B5: IL6R-BP196/IL6R-L (antibody, human IgG1, kappa)
heavy: B1 heavy with D235E, L236Y, H270D, P273G, D298Y, K328A, A332K
light: not shown
notes: L234Y/P238D/H268D/P271G/K326A/A330K (EU) in IL6R-B3; copies: 2 + 2
Kd [4]: 3 µM

B6: IL6R-BP189/IL6R-L (antibody, human IgG1, kappa)
heavy: B1 heavy with D235E, G239D, H270D, P273G, D298Y, K328A, A332K
light: not shown
notes: G237D/P238D/H268D/P271G/K326A/A330K (EU) in IL6R-B3; copies: 2 + 2
Kd [1]: 0.042 µM

B7: IL6R-BP186/IL6R-L (antibody, human IgG1, kappa)
heavy: B1 heavy with L236Y, G239D, P273G, K328A, A332K
light: not shown
notes: E233D/L234Y/G237D/P238D/P271G/Y296D/K326A/A330K (EU) in IL6R-B3; copies: 2 + 2
Kd [4]: 0.96 µM

B9: IL6R-BP196/IL6R-L (antibody, human IgG1, kappa)
heavy: B1 heavy with D235E, L236Y, H270D, P273G, D298Y, K328A, A332K
light: not shown
notes: Anti-human IL-6 receptor IgG1
Kd [3]: 51 µM

B10: IL6R-BP191/IL6R-L (antibody, human IgG1, kappa)
heavy: B1 heavy with H270D, P273G, D298Y, K328A, A332K
light: not shown
notes: E233D/P238D/H268D/P271G/K326A/A330K (EU) in IL6R-B3; copies: 2 + 2
Kd [4]: 3 µM | Kd [1]: 0.004 µM

B11: IL6R-BP100/IL6R-L (antibody, human IgG1, kappa)
heavy: B1 heavy with D235E, S269A, D298Y
light: not shown
notes: IgG1; P238D/S267A (EU numbering) introduced into IL6R-B3
Kd [5]: 7.8 µM

B12: IL6R-BP103/IL6R-L (antibody, human IgG1, kappa)
heavy: B1 heavy with D235E, S269V, D298Y
light: not shown
notes: IgG1; P238D/S267V (EU numbering) introduced into IL6R-B3
Kd [5]: 11 µM

B14: IL6R-BP116/IL6R-L (antibody, human IgG1, kappa)
heavy: B1 heavy with D235E, D298Y, K328T
light: not shown
notes: IgG1; P238D/K326T (EU numbering) introduced into IL6R-B3
Kd [5]: 15 µM

B16: IL6R-BP084/IL6R-L (antibody, human IgG1, kappa)
heavy: B1 heavy with D235E, D298Y, V325M, A332K
light: not shown
notes: P238D/V323M/A330K (EU) in IL6R-B3; copies: 2 + 2
Kd [1]: 0.007 µM | Kd [2]: 0.5 µM

B20: IL6R-BP078/IL6R-L (antibody, human IgG1, kappa)
heavy: B1 heavy with D235E, D298Y, A332M
light: not shown
notes: IgG1; P238D/A330M (EU numbering) introduced into IL6R-B3
Kd [5]: 15 µM

More lines, now with the values ahead:

Kd [3]: 69 µM
B4: IL6R-BP206/IL6R-L (antibody, human IgG1, kappa)
heavy: B1 heavy with P273G, D298Y, A332R
light: not shown
notes: Anti-human IL-6 receptor IgG1

Kd [4]: 4.1 µM
B8: IL6R-BP211/IL6R-L (antibody, human IgG1, kappa)
heavy: B1 heavy with H270D, P273G, D298Y, K328A, A332R
light: not shown
notes: E233D/P238D/H268D/P271G/K326A/A330R (EU) in IL6R-B3; copies: 2 + 2

Kd [4]: 0.84 µM | Kd [2]: 0.04 µM
B13: IL6R-BP201/IL6R-L (antibody, human IgG1, kappa)
heavy: B1 heavy with G239D, P273G, D298Y, A332R
light: not shown
notes: E233D/G237D/P238D/P271G/A330R (EU) in IL6R-B3; copies: 2 + 2

Kd [4]: 0.99 µM | Kd [1]: 0.18 µM
B15: IL6R-BP203/IL6R-L (antibody, human IgG1, kappa)
heavy: B1 heavy with D235E, G239D, P273G, D298Y, A332R
light: not shown
notes: G237D/P238D/P271G/A330R (EU) in IL6R-B3; copies: 2 + 2

Kd [3]: 41 µM
B17: IL6R-BP209/IL6R-L (antibody, human IgG1, kappa)
heavy: B1 heavy with D235E, G239D, H270D, P273G, D298Y, K328A, A332R
light: not shown
notes: Anti-human IL-6 receptor IgG1

Kd [3]: 33 µM
B18: IL6R-BP197/IL6R-L (antibody, human IgG1, kappa)
heavy: B1 heavy with L236Y, G239D, H270D, P273G, K328D, A332K
light: not shown
notes: Anti-human IL-6 receptor IgG1

Kd [4]: 1 µM
B19: IL6R-BP210/IL6R-L (antibody, human IgG1, kappa)
heavy: B1 heavy with D235E, G239D, H270D, P273G, D298Y, A332R
light: not shown
notes: G237D/P238D/H268D/P271G/A330R (EU) in IL6R-B3; copies: 2 + 2

Kd [3]: 72 µM
B21: IL6R-BP203/IL6R-L (antibody, human IgG1, kappa)
heavy: B1 heavy with D235E, G239D, P273G, D298Y, A332R
light: not shown
notes: Anti-human IL-6 receptor IgG1
